Data taken from patent US20200262898A1.

Columns and labels:
[1] = target: Fc-binding protein (the ZZ domain of ProA); experiment: flow cytometry on cells expressing the Fc-binding ZZ domain on their surface; given as a measure of expression
[2] = target: T1, CD151 (UniProt P48509); experiment: flow cytometry on cells transfected with the target; signal over mock-transfected cells (background = 1.0)
T1 sequence (looked up): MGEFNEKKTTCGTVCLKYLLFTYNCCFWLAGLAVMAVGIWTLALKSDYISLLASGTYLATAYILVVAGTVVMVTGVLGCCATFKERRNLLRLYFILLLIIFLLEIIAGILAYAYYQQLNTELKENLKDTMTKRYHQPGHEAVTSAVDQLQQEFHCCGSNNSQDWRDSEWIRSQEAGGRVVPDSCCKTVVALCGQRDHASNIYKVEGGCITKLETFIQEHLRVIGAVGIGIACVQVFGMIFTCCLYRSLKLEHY

[3] = target: CD63 (UniProt P08962); experiment: as above
[4] = target: T2, CD81 (UniProt P60033); experiment: as above
T2 sequence (looked up): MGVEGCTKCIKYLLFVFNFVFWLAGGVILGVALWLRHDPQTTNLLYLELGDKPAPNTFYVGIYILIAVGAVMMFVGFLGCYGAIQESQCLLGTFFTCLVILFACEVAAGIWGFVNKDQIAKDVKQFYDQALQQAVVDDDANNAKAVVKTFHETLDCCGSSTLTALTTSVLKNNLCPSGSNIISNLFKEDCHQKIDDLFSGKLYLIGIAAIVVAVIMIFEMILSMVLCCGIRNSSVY

[5] = target: T3, IGSF8 (UniProt Q969P0); experiment: as above
T3 sequence (looked up): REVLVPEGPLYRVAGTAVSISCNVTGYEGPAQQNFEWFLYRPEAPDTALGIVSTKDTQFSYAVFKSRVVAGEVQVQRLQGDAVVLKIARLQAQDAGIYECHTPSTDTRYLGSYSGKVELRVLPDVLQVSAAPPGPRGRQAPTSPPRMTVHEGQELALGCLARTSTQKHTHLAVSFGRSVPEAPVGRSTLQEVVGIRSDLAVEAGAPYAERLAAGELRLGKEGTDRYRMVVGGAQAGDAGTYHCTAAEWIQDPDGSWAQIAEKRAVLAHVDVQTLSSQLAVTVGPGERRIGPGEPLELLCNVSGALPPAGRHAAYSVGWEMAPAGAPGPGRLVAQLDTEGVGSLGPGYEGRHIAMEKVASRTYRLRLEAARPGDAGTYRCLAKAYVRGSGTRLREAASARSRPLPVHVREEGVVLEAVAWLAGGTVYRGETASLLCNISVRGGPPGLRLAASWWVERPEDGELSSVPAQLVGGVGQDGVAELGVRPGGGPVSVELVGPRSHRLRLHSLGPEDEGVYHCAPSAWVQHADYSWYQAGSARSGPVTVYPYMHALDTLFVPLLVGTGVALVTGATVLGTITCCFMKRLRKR

[6] = target: T4, CD59 (UniProt P13987); experiment: as above
T4 sequence (looked up): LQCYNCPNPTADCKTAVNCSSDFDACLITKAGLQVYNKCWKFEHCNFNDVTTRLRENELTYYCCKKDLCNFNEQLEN

[7] = target: CD147 (UniProt P35613); experiment: as above

B1: Antibody of common light chain F10 (F10chicken) paired with the heavy chain against CD151 (antibody, V domains shown)
VH: AVTLDESGGGLQMPGGALSLVCKASGFTFSSYGMEWVRQAPGKGLEWVAGISSGGGSTDYGTAVKGRATISRDNGQSTVRLQLNNLRAEDTGTYFCAKSAYGGTWDGDDIDAWGHGTEVIVSS
VL: ALTQPSSVSANPGETVKITCSGGYNGHYGWYQQKSPGSAPVTVIYSNNQRPSNIPSRFSGSTSGSTSTLTITGVRAEDEAVYFCGGYDSSAGIFGAGTTLTVL
S:B Expression [1]: 13.7 S:B | S:B Binding [2]: 25.1 S:B

B2: Antibody of common light chain F10 (F10chicken) paired with the heavy chain against CD63 (antibody, V domains shown)
VH: AVTLDESGGGLQTPGGALSLVCKASGFTFSDRGMHWVRQAPGKGLEWVAGIRSTGSFTLYGAAVKGRATISRDDGQSTLRLQLNNLRAEDTGTYYCAKSAGGYGCGRGWCGVDDIDAWGHGTEVIVSS
VL: ALTQPSSVSANPGETVKITCSGGYNGHYGWYQQKSPGSAPVTVIYSNNQRPSNIPSRFSGSTSGSTSTLTITGVRAEDEAVYFCGGYDSSAGIFGAGTTLTVL
S:B Expression [1]: 15.5 S:B | S:B Binding [3]: 5.2 S:B

B3: Antibody of common light chain F10 (F10chicken) paired with the heavy chain against CD81 (antibody, V domains shown)
VH: AVTLDESGGGLQTPGGALSLVCKASGFSIGDYNMGWVRQAPGKGLEWVAGIDAGGGTWRATAVKGRATISRDNGQSTVRLQLNNLRAEDTATYFCAKSTDSSANCCANSIDAWGHGTEVIVSS
VL: ALTQPSSVSANPGETVKITCSGGYNGHYGWYQQKSPGSAPVTVIYSNNQRPSNIPSRFSGSTSGSTSTLTITGVRAEDEAVYFCGGYDSSAGIFGAGTTLTVL
S:B Expression [1]: 11.1 S:B | S:B Binding [4]: 0.4 S:B

B4: Antibody of common light chain F10 (F10chicken) paired with the heavy chain against IGSF8 (antibody, V domains shown)
VH: AVTLDESGGGLQTPGGGLSLVCKASGFSISSYEMQWVRQAPGKGLEWVAGIDDDGSSRAYAPAVKGRATISRDNGQSTVRLQLNNLRAEDTGTYYCAKTIYAATLNAGEIDAWGHGTEVIVSS
VL: ALTQPSSVSANPGETVKITCSGGYNGHYGWYQQKSPGSAPVTVIYSNNQRPSNIPSRFSGSTSGSTSTLTITGVRAEDEAVYFCGGYDSSAGIFGAGTTLTVL
S:B Expression [1]: 11.9 S:B | S:B Binding [5]: 1.6 S:B

B5: Antibody of common light chain F10 (F10chicken) paired with the heavy chain against CD59 (antibody, V domains shown)
VH: AVTLDESGGGLQTPGGGLSLVCKASGFDFSSFDMVWVRQAPGKGLEWVAGISYSNTDTSYAPAVDGRATISRDNGQSTVRLQLNNLRAEDSATYYCAKSAGGCCYRADNIDAWGHGTEVIVSS
VL: ALTQPSSVSANPGETVKITCSGGYNGHYGWYQQKSPGSAPVTVIYSNNQRPSNIPSRFSGSTSGSTSTLTITGVRAEDEAVYFCGGYDSSAGIFGAGTTLTVL
S:B Expression [1]: 12.2 S:B | S:B Binding [6]: 14.6 S:B

B6: Antibody of common light chain C11 (C11chicken) paired with the heavy chain against CD147 (antibody, V domains shown)
VH: AVTLDESGGGLQTPGGGLSLVCKASGFTFSSYAMYWVRQAPGKGLQWVAGISRDGSSGRYGAAVKGRATISRDNGQSTVRLQLNNLRAEDTATYFCAKSGYGDYTSADEIDAWGHGTEVIVSS
VL: ALTQPSSVSANPGETVKITCSGGGSWYGSYYYGWYQQKSPGSAPVTLIYNNDKRPSDIPSRFSGSESGSTATLTITGVQAEDEAVYFCGGYDSTTTDMFGAGTTLTVL
S:B Binding [7]: 1.4 S:B

B7: Antibody of common light chain B9 (B9chicken) paired with the heavy chain against CD147 (antibody, V domains shown)
VH: AVTLDESGGGLQTPGGGLSLVCKASGFTFSSYAMYWVRQAPGKGLQWVAGISRDGSSGRYGAAVKGRATISRDNGQSTVRLQLNNLRAEDTATYFCAKSGYGDYTSADEIDAWGHGTEVIVSS
VL: ALTQPSSVSANPGETVKITCSGGGSSNYYGWYQQKSPGSAPVTLIYGTNKRPSDIPSRFSGSKSGSTGTLTITGVQADDEAVYFCGSADSSTNAGIFGAGTTLTVL
S:B Binding [7]: 10.3 S:B

B8: Antibody of common light chain F10 (F10chicken) paired with the heavy chain against CD147 (antibody, V domains shown)
VH: AVTLDESGGGLQTPGGGLSLVCKASGFTFSSYAMYWVRQAPGKGLQWVAGISRDGSSGRYGAAVKGRATISRDNGQSTVRLQLNNLRAEDTATYFCAKSGYGDYTSADEIDAWGHGTEVIVSS
VL: ALTQPSSVSANPGETVKITCSGGYNGHYGWYQQKSPGSAPVTVIYSNNQRPSNIPSRFSGSTSGSTSTLTITGVRAEDEAVYFCGGYDSSAGIFGAGTTLTVL
S:B Expression [1]: 15.5 S:B | S:B Binding [7]: 5.7 S:B
